# Read-outs that look alike come from different tables or passages of the source. Residues, ends and D or L forms follow the SMILES beside them.
# Tests used:
# [1] = test system: MDA-MB-435S breast cancer cells; assay type: cell-based, human; conditions: 4 h
# Method: Twelve different fusion constructs were analyzed for anti-cancer activity in vitro against MDA-MB-435S breast cancer cells and for hemolytic activity in vitro to human red blood cells. Fusion constructs of the following sequence were tested:
# (§1) The peptide conjugates were freshly dissolved in saline and added into cancer cell seeded multi-well plates at increasing concentrations of 0, 0.001, 0.01, 0.1, 1, 2, 5, 10 and 100 μM. Incubations were conducted for 4 h at 37° C. Cell viability was determined using formazan conversion assays (MTT assays). Controls were treated with USP saline or 0.1% TritonX-100™ as reference for 0 and 100% cell death, respectively. Cytotoxicity was evaluated as an IC50 value.
# human red blood cells = assay: Hemolytic activity; assay type: cell-based
# Method: Hemolytic activity was studied by incubating the fusion constructs with human red blood cells at concentrations of 0.01, 0.1, 1, 10 and 50 μM for 2 hours. Saline and 0.1% Triton served as controls.
# Hemolytic activity of the compounds was studied by incubating EP-301 and EP-302 with human red blood cells at concentrations of 0.01, 0.1, 1, 10 and 50 μM for 2 hours.
# [2] = test system: MDA-MB-435S breast cancer cells; assay type: cell-based, human; conditions: 24 h
# Method: as §1, with “EP-301 and EP-302 were analyzed for anti-cancer activity in vitro in a time course experiment against MDA-MB-435S breast cancer cells. EP-301 and EP-302” for “The peptide conjugates”, “0.25, 0.5, 1, 2, 4, 6 h or 24” for “4”, “value derived for EP-301 and EP-302 at each time point.” for “value.”
# [3] = biological target: T1, nucleolin expressed on the surface of human cancer cell lines (human, UniProt P19338); assay: cell-based or functional assay
# [4] = biological target: T1, nucleolin expressed on the surface of …; assay: cell-based or functional assay; remark: listed apart in the source
# [5] = biological target: T1, nucleolin expressed on the surface of …; assay: cell-based or functional assay; remark: listed apart in the source
# [6] = biological target: T1, nucleolin expressed on the surface of …; assay: cell-based or functional assay; remark: listed apart in the source
# [7] = biological target: nucleolin on CHO (Hamster Ovary) cells (hamster)
molecule,measurement,setting,value
CC(C)C[C@H](NC(=O)[C@H](CCCNC(=N)N)NC(=O)[C@H](C)NC(=O)[C@H](CCCNC(=N)N)NC(=O)[C@H](CCCCN)NC(=O)[C@H](C)NC(=O)[C@H](Cc1ccccc1)NC(=O)[C@H](CCCCN)NC(=O)[C@H](CCCCN)NC(=O)[C@H](C)NC(=O)[C@H](Cc1ccccc1)NC(=O)[C@H](CCCCN)NC(=O)[C@H](C)NC(=O)[C@H](Cc1ccccc1)NC(=O)[C@H](CCCCN)NC(=O)[C@H](CCCCN)NC(=O)[C@H](C)NC(=O)[C@H](Cc1ccccc1)NC(=O)[C@H](CCCCN)NC(=O)[C@H](C)NC(=O)[C@H](Cc1ccccc1)NC(=O)[C@@H](N)CCCCN)C(=O)N[C@@H](CCC(N)=O)C(=O)N[C@@H](CCCNC(=N)N)C(=O)N[C@@H](CCCNC(=N)N)C(=O)O (H-KFAKFAKKFAKFAKKFAKRARLQRR-OH),IC50,[1],1.6 ± 0.05 µM
same,HA50,human red blood cells,Not hemolytic
CC(C)C[C@H](NC(=O)[C@H](CCCNC(=N)N)NC(=O)[C@H](C)NC(=O)[C@H](CO)NC(=O)[C@H](CCCNC(=N)N)NC(=O)[C@H](CCCNC(=N)N)NC(=O)[C@H](CCC(N)=O)NC(=O)[C@@H]1CCCN1C(=O)[C@H](CCC(=O)O)NC(=O)[C@H](CC(=O)O)NC(=O)[C@H](CCCCN)NC(=O)[C@H](CCCCN)NC(=O)[C@H](C)NC(=O)[C@H](Cc1ccccc1)NC(=O)[C@H](CCCCN)NC(=O)[C@H](CCCCN)NC(=O)[C@H](C)NC(=O)[C@H](Cc1ccccc1)NC(=O)[C@H](CCCCN)NC(=O)[C@H](C)NC(=O)[C@H](Cc1ccccc1)NC(=O)[C@H](CCCCN)NC(=O)[C@H](CCCCN)NC(=O)[C@H](C)NC(=O)[C@H](Cc1ccccc1)NC(=O)[C@H](CCCCN)NC(=O)[C@H](C)NC(=O)[C@H](Cc1ccccc1)NC(=O)[C@@H](N)CCCCN)C(=O)N[C@@H](CO)C(=O)N[C@@H](C)C(=O)N[C@@H](CCCCN)C(=O)O [EP-301] (H-KFAKFAKKFAKFAKKFAKKDEPQRRSARLSAK-OH),IC50,[2],12 µM
same,IC50,[1],64.8 µM
same,HA50,human red blood cells,Not hemolytic
CC(C)C[C@H](NC(=O)[C@H](CCCNC(=N)N)NC(=O)[C@H](C)NC(=O)[C@H](CCCNC(=N)N)NC(=O)[C@H](CCCCN)NC(=O)[C@H](C)NC(=O)[C@H](Cc1ccccc1)NC(=O)[C@H](CCCCN)NC(=O)[C@H](CCCCN)NC(=O)[C@H](C)NC(=O)[C@H](Cc1ccccc1)NC(=O)[C@H](CCCCN)NC(=O)[C@H](C)NC(=O)[C@H](Cc1ccccc1)NC(=O)[C@H](CCCCN)NC(=O)[C@H](CCCCN)NC(=O)[C@H](C)NC(=O)[C@H](Cc1ccccc1)NC(=O)[C@H](CCCCN)NC(=O)[C@H](C)NC(=O)[C@H](Cc1ccccc1)NC(=O)[C@@H](N)CCCCN)C(=O)N[C@@H](CCC(N)=O)C(=O)N[C@@H](CCCNC(=N)N)C(=O)N[C@@H](CCCNC(=N)N)C(=O)N[C@@H](Cc1ccccc1)C(=O)O (H-KFAKFAKKFAKFAKKFAKRARLQRRF-OH),IC50,[1],0.87 ± 0.003 µM
same,HA50,human red blood cells,Not hemolytic
RARLQRRSARL [R1ARLQRRSARL11],"IC50 of cytotoxicity (MTT), MDA-MB-435S breast cancer cells, 120 h",[3],5.4 µM
KFAKFAKKFAKFAKKFAKRARLQRRSARLSAK [EP-302],"IC50 of cytotoxicity (MTT), MDA-MB-435S breast cancer cells, 4 h",[4],0.9 µM
same,"IC50 of cytotoxicity (MTT), MDA-MB-435S breast cancer cells, time course, 30 minutes",[5],2.3 µM
same,"IC50 of cytotoxicity (MTT), A549 (Lung) cells, 6 h",[6],4.3 µM
same,"IC50 of cytotoxicity (MTT), A549 (Lung) cells, 24 h",[6],2.4 µM
same,"IC50 of cytotoxicity (MTT), DU145 (Prostate) cells, 6 h",[6],3.1 µM
same,"IC50 of cytotoxicity (MTT), DU145 (Prostate) cells, 24 h",[6],5.1 µM
same,"IC50 of cytotoxicity (MTT), Daudi (NHL) cells, 6 h",[6],3.2 µM
same,"IC50 of cytotoxicity (MTT), Daudi (NHL) cells, 24 h",[6],2.5 µM
same,"IC50 of cytotoxicity (MTT), HL60 (Acute Myeloid Leukemia) cells, 24 h",[6],0.5 µM
same,"IC50 of cytotoxicity (MTT), HT 29 (Colon) cells, 6 h",[6],45.8 µM
same,"IC50 of cytotoxicity (MTT), HT 29 (Colon) cells, 24 h",[6],26.2 µM
same,"IC50 of cytotoxicity (MTT), HT 116(Colon) cells, 6 h",[6],6.7 µM
same,"IC50 of cytotoxicity (MTT), HT 116(Colon) cells, 24 h",[6],4.8 µM
same,"IC50 of cytotoxicity (MTT), K562 (Chronic Myeloid Leukemia) cells, 24 h",[6],2.8 µM
same,"IC50 of cytotoxicity (MTT), LoVo (Colon) cells, 6 h",[6],14.1 µM
same,"IC50 of cytotoxicity (MTT), LoVo (Colon) cells, 24 h",[6],12.5 µM
same,"IC50 of cytotoxicity (MTT), MCF-7 (Breast) cells, 6 h",[6],5.5 µM
same,"IC50 of cytotoxicity (MTT), MCF-7 (Breast) cells, 24 h",[6],6.4 µM
same,"IC50 of cytotoxicity (MTT), MDA-MB-231 (Breast) cells, 6 h",[6],4.6 µM
same,"IC50 of cytotoxicity (MTT), MDA-MB-231 (Breast) cells, 24 h",[6],3.6 µM
same,"IC50 of cytotoxicity (MTT), MDA-MB-435S (Breast) cells, 6 h",[6],1.4 µM
same,"IC50 of cytotoxicity (MTT), MDA-MB-435S (Breast) cells, 24 h",[6],1.7 µM
same,"IC50 of cytotoxicity (MTT), MV4-11(Acute Myeloid Leukemia) cells, 24 h",[6],0.5 µM
same,"IC50 of cytotoxicity (MTT), MiaPaCa (Pancreas) cells, 6 h",[6],2.1 µM
same,"IC50 of cytotoxicity (MTT), MiaPaCa (Pancreas) cells, 24 h",[6],1.9 µM
same,"IC50 of cytotoxicity (MTT), OVCAR-3 (Ovary) cells, 6 h",[6],5.2 µM
same,"IC50 of cytotoxicity (MTT), PC-3 (Prostate) cells, 6 h",[6],3.3 µM
same,"IC50 of cytotoxicity (MTT), PC-3 (Prostate) cells, 24 h",[6],3.2 µM
same,"IC50 of cytotoxicity (MTT), SKOV-3 (Ovary) cells, 6 h",[6],5.1 µM
same,"IC50 of cytotoxicity (MTT), SKOV-3 (Ovary) cells, 24 h",[6],5.2 µM
same,"IC50 of cytotoxicity (MTT), CHO (Hamster Ovary) cells, 6 h",[7],3.1 µM
same,"IC50 of cytotoxicity (MTT), CHO (Hamster Ovary) cells, 24 h",[7],3.7 µM
KFAKFAKKFAKFAKKFAKKDEPQRRSARLSAK [EP-301],"IC50 of cytotoxicity (MTT), MDA-MB-435S breast cancer cells, 4 h",[4],64.8 µM
same,"IC50 of cytotoxicity (MTT), MDA-MB-435S breast cancer cells, time course, 30 minutes",[5],48 µM
same,"IC50 of cytotoxicity (MTT), MDA-MB-435S breast cancer cells, time course, 6 h",[5],> 40 µM
same,"IC50 of cytotoxicity (MTT), MDA-MB-435S breast cancer cells, time course, 24 h",[5],12 µM
HARLQRRSARLSAK [H1ARLQRRSARLSAK14],"IC50 of cytotoxicity (MTT), MDA-MB-435S breast cancer cells, 120 h",[3],3.2 µM
HAHLQRRSARLSAK [H1AHLQRRSARLSAK14],"IC50 of cytotoxicity (MTT), MDA-MB-435S breast cancer cells, 120 h",[3],4.7 µM
RARLQRRSARLS [R1ARLQRRSARLS12],"IC50 of cytotoxicity (MTT), MDA-MB-435S breast cancer cells, 120 h",[3],6.5 µM
RARLQRRSARLSAK,"IC50 of cytotoxicity (MTT), MDA-MB-435S breast cancer cells, 120 h",[3],2.4 µM
KDEPQRRSARLSAK [F3-14 mer fragment],"IC50 of cytotoxicity (MTT), MDA-MB-435S breast cancer cells, 120 h",[3],11.1 µM
RVRLQRRSARLSAK [R1VRLQRRSARLSAK14],"IC50 of cytotoxicity (MTT), MDA-MB-435S breast cancer cells, 120 h",[3],1.9 µM
